The text below walks through data of patent US20240024414.

The data set deals with L7Ae (50S ribosomal protein L7Ae, L30 family, RBP11) (Archaeoglobus fulgidus) (UniProt O29494). Put plainly: pulldown. The settings on record: RIP-Seq enrichment, may be indirect.
Chain of L7Ae (50S ribosomal protein L7Ae, L30 family, RBP11) (Archaeoglobus fulgidus) (O29494 whole entry): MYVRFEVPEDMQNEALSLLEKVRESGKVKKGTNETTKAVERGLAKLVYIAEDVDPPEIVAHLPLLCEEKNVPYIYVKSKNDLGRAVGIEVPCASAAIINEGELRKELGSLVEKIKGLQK

Consider FAM69A RNA, for which the binding signal (log2 fold change) is 4.98.
For NPM1 RNA, the binding signal (log2 fold change) was 3.22.
Then SNORA62 RNA, with 3.32.
As for SNORA73B RNA, the binding signal (log2 fold change) came out at 4.08.
On to SNORA79B RNA, for which the binding signal (log2 fold change) was found to be 3.28.
